Experiment: soluble fraction after stress (log2 fold change); higher = more stays soluble; pooled small domains, quantitative proteomics
Settings: stress: 75 degC
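Note: 20 min heating vs room temperature control held 20 min.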

HMSSYAEVMERSKYLQLHKYKIWKSETDGFWRTYYLNEQGKRKMKKLKHSEDMIDFVIEYVQNNE
soluble fraction (log2): -2.17

HMSTDDILSSITALRLASVQFQLGQFDPALDSLKLVKEQAWSGAKNILAGDIQLAKGDKEAAKASYQQAQQ
soluble fraction (log2): -0.422

HMSTDIPFNIFSQKWNADEIDSIVVENNKIEGKTKDNKKFSTYAPDELLTSLMENHKNPNVIVEFRAP
soluble fraction (log2): 0.576

HMSTDKIDIVSSAILSSLKDNDGFIGLTDKSPPPEIYTAFRVSKKVFKQAIGALYKQRRITLESSGIRLIS
soluble fraction (log2): -0.288

HMSTDSTQLLGFNKTGEELPIYKEANEENKFAEIPQNVYVKNFGQNGEFTKIKYLDQEGYVKTAGLK
soluble fraction (log2): 0.955

HMSTEEYDRGYEQGLEEAAKADDAWVANLIKIYSQNTPESMPETMKGRLDAFLYEQQRRAQSVPEM
soluble fraction (log2): 0.918

HMSTIAAMADPRAWALEMLGFPPGTVKPSKREIQVRFRESLRDVHPDHGGDSRTASASINDLSEARRVLLS
soluble fraction (log2): -0.36

HMSTLGIRIKHYRTDSNLTQKELAGLINVKRDALANWETDRALPDVMNLKKLAEVFQVSTDELLQV
soluble fraction (log2): -1.02

HMSTLTGTQRAAVVLMQMSPPNAARVMAQFTDAEAEEIAAEIVRLRKVDPEVAEQIMKDFHEAALSS
soluble fraction (log2): -0.226

HMSTLTLTSGTYAVGENIKAGKYTIMGSGSIAISSSGKARVNSNLTADRKDYVLNDDETIKIKGKAQFIPI
soluble fraction (log2): -0.315

HMSTMKIVRVKSNLKIGQEITSKDIEVVEVGAYNMPSEVMKNSEDVIGKYASAEMIKGEYVLAAKISDTP
soluble fraction (log2): 0.151

HMSTMNRLPRHEQILKLVRANGFMPIEELARLLDVTPQTIRRDINTLSEENLLRRFHGGAALGPSVE
soluble fraction (log2): -0.371

HMSTMTGTVDTPGASLNVRTGAWGPIVGQLAHGSKVTIIGSSGDWFKISYNGATRYVHKNYVNTT
soluble fraction (log2): -0.683

HMSTMVEIPNVVGMTIKEAKEALGNLGLSISKISGSNEDSAIVTEVSPAPGSSVKRDESITLVGQPK
soluble fraction (log2): 0.683

HMSTPAKVTPTNPIVKQLFNAAETQIKNKDIQNAIASYEKADTLTTDEKVKQYIHYQLSTLKDDN
soluble fraction (log2): -0.0812

HMSTPERQEVLDILKRQGEMTPLQIAGQISRTSKSVSNILSKLKREGFVANGAKYGSWVSTES
soluble fraction (log2): -0.0675

HMSTPTVDTKTKLDLYNLLYKKDLNYLDAYNFVLDNFGSDNIDIMFKMLGLDFTNWVIENKPE
soluble fraction (log2): 0.139

HMSTQYKTGHYKTTDALNLRASYSTSSNVLLTIPKGKTIVVTRVHNNEWGQVEYNGKTGWIYLEYTAYTES
soluble fraction (log2): -1.85

HMSTSAAELLRTARQQAGMSQSAVAELAKTSQSAIAMYEAGNREPSLPVLQRLLAATGHQLSLSVLP
soluble fraction (log2): -0.337

HMSTTILSFQNRVVIETLHNEGRSLRYIANYLGFSKATIFNELHRLNSEYRAELAQADFERKVSQR
soluble fraction (log2): -3.06

HMSTVAETVYNEIRDDILYGELQPGVKLKLEALRERYSVGVNTLREVLNRLVASGFVFVEGQKGFRVV
soluble fraction (log2): 0.365

HMSTVEKDSELGGNFRIASYPTGKGQISEAIRSMIVRAKQVGVNIRLNTEATEEPLRALAPNAVILATG
soluble fraction (log2): 0.188

HMSTVELPVQINGKVRGRITVPANAGQEDVKQAALADSKVQRYIEGASIRKVIVVPRKLVNIVV
soluble fraction (log2): -0.215

HMSTVTGLINYLSSGLIKGVGEATARKLVDHFGLDVLDIIQFNPQRLLEVDGIGEARAEMIASSFSEQK
soluble fraction (log2): -1.21

HMSVDIIPGKADQKVRLIHDPAIVGVTTGGVKTAGPHTLIQIELGPNERPYKRLSLLELIPEG
soluble fraction (log2): -0.347

HMSVDVGMQLRKLREERKISMRELARLSGLSANALSMIERGLTSPSVSTLNKLAGALEVPITAFFRI
soluble fraction (log2): -1.35

HMSVEVPNLIGKTLDQVDIDLKSLDLSFVILDSARYNSSFKPLSVIDHQPISGAKVKVNRKIYLTINPS
soluble fraction (log2): -0.411

HMSVKIELNENEQAIFTAVQKVNEAVLPELRAQFSDMSNKAWDNSVKMLTKNNLLKVSKEGEILYIRM
soluble fraction (log2): -1.22

HMSVKSVSLRKISYKVRRGDSLYNIAKNFSLSINDITHWNSINKKSYLQPGQRLTLYINPRN
soluble fraction (log2): -2.18

HMSVKVFRDQILLNNDSDKMLQLSFSNLFGQKVLETSISPGKSAISTGNLPPGIYFITTSPATGVMRVII
soluble fraction (log2): -1.78

HMSVLRLGNRGPDVRKLQLLLNSTLVPSPQLTVDGDFGKRTEQAVVTFQQMRGLPQDGIVGQRTWALLGQT
soluble fraction (log2): -0.652

HMSVLSVASKNQAINPGQVVALLKDGIKLNDDGRVEILDNNNNIRYNEKGNLLSIEERVKEFLDANPHFRQ
soluble fraction (log2): -0.399

HMSVLVLPMLKELTHEDREVVELFYLNDMSVREIALIISVPIGTVKSRLHRARAQLKHQIVNLNQ
soluble fraction (log2): -3.76

HMSVPVNAPMPGTILDIKVKAGAAVKAGDVVMILEAMKMENEISAPQDGTIASIDVRKGDTVNSGDVLYTM
soluble fraction (log2): -0.198

HMSVSVNAPMPGNILDVRAKTGESIQKGQVIVILEAMKMENEIMAPQDGKISSINTSKGSTVNSGDLLFTM
soluble fraction (log2): -0.106

HMSVTMPNLVGLDEQTAVTRINSSNLSYGSTNYVHSDHEAGVVFKQSTPAYTEVDEHTKIYIWVSLGPEE
soluble fraction (log2): -0.729

HMSVTPLLDATEKDKTKYRDLWLVAVVKNGVNYARKYKFGYVYAWLYRHDRDWLLQVNNQHKIPNIT
soluble fraction (log2): 0.0707

HMSVTVMVLRAAGDIQAGTEITDKHLATVEVGEYGLPEGIINDKDSILGKIALTDIAKGDYFFSQKLG
soluble fraction (log2): -0.954

HMSVVKPIYIGMMTSEVEAIMGKPFEVITNNNSKNNQLWIYKYQDKRSVMLTFTNYKLIKIE
soluble fraction (log2): -2.7

HMSWDNELLERAHKIIELYPQKRSALGPLLYLAQEKDGFISDDSIVEISNLVDITEVQVKSVSSFYSMY
soluble fraction (log2): -0.903

HMSWGDVKLTMWGAEEDQTMLREMADAFIEQNADKGNVTIEIGVQSESSAKDTVLADPESAADVFA
soluble fraction (log2): 0.242

HMSWRWVPVSGAYTTSALEAAGLTRAFDDQAAAEEWLGLFFDDLLREGVGEVSLYEEDRLVYGPMSL
soluble fraction (log2): -2.49

HMSYANVEWRDFLNSLDEKYRIVVILYYVQGFKTREIAEILQINQSTVRGRLAKAREKLEQQYN
soluble fraction (log2): -1.4

HMSYFIFDGVLNLGKQYELKGEESSHITKSRRLRPGDSFLIQDQEGQRFEAILKSFDRNSLIFTPHKPTA
soluble fraction (log2): -0.722

HMSYFNEYEVGDTIRVVNGPLADQISTITAIDKEKGLVNISTVFFGRENNVQVSINDIEKYN
soluble fraction (log2): 0.0153

HMSYGDLTGRTVVITGASKGIGARASRVLAQAGASVVGLARSVDELTALKYDLENDGLSFDFG
soluble fraction (log2): ≥ 1.04

HMSYKYYSTERPLMPGSFPKPQGNTVLNIENFNDRSYVGKIGREAWGFIEYEKPISPVLLDDYELVAA
soluble fraction (log2): -0.235

HMSYLELENLAEDIKATYDNLSTDLREVFRLSDIEGLSYEEISNKMNIPIGTVRSRLHRARETLLRIFNN
soluble fraction (log2): -1.39

HMSYPTAVTQTTLNVRTGPGTQYERLGAFVENTEVIVLTRQPEWIQVRGMSGDKAIIGWVSARYLQMNP
soluble fraction (log2): -2.21

HMSYQNKLNYLINAFGGADNFQKLLGVGPSAISNYKSRKHLPLNQAKRLSKIAPQFGFSLDPHSLQIST
soluble fraction (log2): -0.856

HMSYQSYDKVVGDTFFEANLKAESKFGKGNFEIISTRRVKHPIYLGFGHKELVELTIGIHDP
soluble fraction (log2): -1.33

HMSYTAYLSQELGDMSREIQSELLKKGYNGSSSFTIVRTYMGSSVKFSVYNANNGELITSKTINM
soluble fraction (log2): -2.9

HMSYTDIILKMSNVNFLTKVNFTNSEKNKNIKNGNFLIKKGKNRITAAFDYKDNELVISKSNLRNTFL
soluble fraction (log2): -1.18

HMTAEVIYVDVGGEVNQPSVVELTDGSRVTDAIAAAGGLTEKADLTDINRAAFVSDGEKIFIPSQEE
soluble fraction (log2): 0.4

HMTAFAGLTPRERDLLELIAQGRDNAQIAATLGVSDKTVRNHITHIFAKLEVETRAQAIVLARNAGFGRA
soluble fraction (log2): -1.12

HMTAGYFTRGSHQDEVLRIQGTPSGVNKYSDHEVWNYGLSSVDISLRDRRVTEWNNISGNLKV
soluble fraction (log2): -0.149

HMTAKRELILRVFMDSNGKLLSIDDVFMEMRKKRSHRTSKMTVKRAIDLLVDLGLLKEVLFDDDNIKYEYV
soluble fraction (log2): -1.26

HMTALISGNKAMQMLELSRHSFEKIVKDGLLSIVHEGDKKYYEIGEVEAFMGSDTYKELVNGV
soluble fraction (log2): 0.449

HMTALSIGTVVRFTGDRHYISSTGDTGYPASPGLAKITSINPGSKHPYHLIHIDNTSNVYGWVNKQDIIT
soluble fraction (log2): -1.17

HMTAQLSITLNGETRRAAAGSIADLVRSLELDPAKVAVERNGLIVPRSTLAEVALGDGDVLEIVHFV
soluble fraction (log2): -1

HMTASTLSYSKFNEQVVQNQVRKVTFQGEQVKGELISGQTFTTTVPANDTTLWPMLKAHNVDTAVTAA
soluble fraction (log2): 0.186

HMTASVTDAMFELIDELPKLGKTSFRQLTADLVDRLQVVVTFLAVLELYKQGHVELDQSERFGDITVVWTG
soluble fraction (log2): 0.208

HMTATIEEVNELTQSARVNINVPYAAKDEAKAYGAKWDDVERTWYTTGENYAQNKDFFDGFNPTAS
soluble fraction (log2): 0.583

HMTATWLTYYRIKAGLTQKRLAELAGLNIRQVQKIENGETLAGNTTAKNLLALADALGIDPHKL
soluble fraction (log2): -2.15

HMTAYENSIPLNWVIQKGDAKGLPLSANTARLLIDIVGIDLMDLDHELEKISLYLSGESITEEMIKEHIRG
soluble fraction (log2): -0.709

HMTDAELDLLTPREQEVLQLIARGYLYKEIARRLGISVKTVEAHASSVLRKLQLSTRHELSHWAAQRH
soluble fraction (log2): -0.0813

HMTDAYEVLDLNREASDEEIKKRYRELIREHHPDTLIAKGVPQEFVDLANDKMAAINAAYDRIEKDRGL
soluble fraction (log2): 0.56

HMTDEEKENLREKMLEAGFPLLKQYGMTHTSVAKITQAAGIAVGTFYSFWKNKEAYMADLIGYHRR
soluble fraction (log2): -1.27

HMTDITSAITRLNKYNKSGTPLTIDSVTPEALQTLQAKVSSAFEIGAVNQQTYDDVTKDIATLQQYLSSA
soluble fraction (log2): 0.378

HMTDIVPNLIGKSLKDAIQSVEKSNLKAIFDGHGIVVSQQPRPGSPIPARKIMKVTLSPDYR
soluble fraction (log2): -0.13

HMTDKLEEEAKKKAMEDALADEMNISKTIVHDGIRELARIGFLDVISRKGIYVADYTFTGNLETLLAVIRY
soluble fraction (log2): -0.848

HMTDLDDFAARLKTLTDGRASTPRLRDGVMMLSLDVGGLGPDQRDGLIAAIREGGLTVPGVSDVRIVMT
soluble fraction (log2): -0.125

HMTDLEDDEKKVYRLIVESGEGIDFDTLSERSGFSATELPSILLFLMMKEMIDELPGKIYRYSE
soluble fraction (log2): -0.0725

HMTDMYLTYQELRHLGVSQNLISMWKSRKSIDFHMLGGTLYVRYMSIPEQTRSKLALQNVERVYNSRE
soluble fraction (log2): -2.6

HMTDRINIGDVVTIISKDREDSQIVYMRYHKGKLSILGELILNKTKNDTVDFKGRTYDIATIEKS
soluble fraction (log2): -2.22

HMTDVHFIDVPVSEGHPWIGLTVKDLNLPPGTLLVFLNHPGEKSTVPNGDTVLREGDVLVLGATAYAG
soluble fraction (log2): -0.384

HMTDYKTNLQEFLQQDGEVEIEYKLLAEVGPSHARQFEVDVMMGDRVLGSGVGRNKKAAEQAAAKVALSKL
soluble fraction (log2): -0.0613

From the domain aggregation screens of Martell et al. (2025)
